The target in assay [1] is T1, recombinant myostatin (Example 4).
T1 sequence (O14793 267-375, species assumed, looked up): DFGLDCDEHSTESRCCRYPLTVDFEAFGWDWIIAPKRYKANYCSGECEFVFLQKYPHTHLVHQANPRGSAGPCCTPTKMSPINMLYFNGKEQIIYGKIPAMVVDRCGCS
Nature of the assay: cell-based or functional assay.

Assay [2] addresses T2, recombinant bovine mature myostatin (bovine) (UniProt O18836).
T2 sequence (looked up): T1 sequence (O14793 267-375, species assumed, looked up) with K90E, E91G
The experiment in a line: cell-based or functional assay.

Substitutions are numbered along the chain they refer to. Where no end group is shown, it is not given here.

B1: recombinant ovine myostatin splice variant 65 (roMSV65) (peptide, not shown: small tags and cut ends)
chain: VHFYTPPYGQWIFHKERKIIFLEVYIQFCSILGEAVFKRQSKSIHFCQNFKIIACLCNTAAFRMK
With B1, in assay [1], the rescue of myostatin inhibited myoblast proliferation (C2C12, methylene blue assay) (molar ratio roMSV65 to myostatin) was 20.

B2: recombinant human MSV38 (rhMSV38) (peptide, not shown: small tags and cut ends)
chain: VHFPTPPNEEWIFFNVRRIIFLEVGFQFCSILGETALS
modifications: also: 36-aa N-terminal pET100/D-TOPO tag (enterokinase site, Xpress epitope, His), letters not shown
As for B2, in assay [2], the proliferation of primary human myoblasts inhibited by myostatin (molar ratio rhMSV38 to myostatin) was determined as 10 and the restoration of proliferation of human primary myoblasts inhibited by myostatin (methylene blue assay) (molar ratio rhMSV38 to myostatin) came to 1.

B3: recombinant ovine MSV47 (roMSV47) (peptide, not shown: small tags and cut ends)
chain: IIFLEVYIQFCSILGEAVFKRQSKSIHFCQNFKIIACLCNTAAFRMK
modifications: ends and bridges not checked; also: 36-aa N-terminal pET100/D-TOPO tag (enterokinase site, Xpress epitope, His), letters not shown
As for B3, in assay [2], the rescue of myostatin inhibited myoblast proliferation (C2C12, methylene blue assay) (molar ratio roMSV47 to myostatin) is 1 and the restoring proliferation of C2C12 myoblasts inhibited by myostatin (molar ratio roMSV47 to myostatin) came out at 10.

The values above are taken from patent US20080118487A1.
